The source of these data is publication PMC9586334 (Proceedings of the National Academy of Sciences of the …, 2022).

Positions of bridges follow the written chain, without caps; N, C: chain ends. lipid anchor = not defined here

The target of the assay is T1, FhuA, outer membrane TonB-dependent transporter of E. coli (mature part, His10-TEV construct) (E. coli, UniProt P06971 34-747).
T1 construct: FhuA of E. coli, the mature part, amplified from E. coli genomic DNA; No TEV cleavage is told for the SEC and cryo-EM samples; also called wild-type FhuA; free FhuA; source: E. coli Bl21 (DE3) Δcyo, alone or co-overexpressed with Llp, purified (IMAC, SEC, in detergent)
T1 sequence (looked up): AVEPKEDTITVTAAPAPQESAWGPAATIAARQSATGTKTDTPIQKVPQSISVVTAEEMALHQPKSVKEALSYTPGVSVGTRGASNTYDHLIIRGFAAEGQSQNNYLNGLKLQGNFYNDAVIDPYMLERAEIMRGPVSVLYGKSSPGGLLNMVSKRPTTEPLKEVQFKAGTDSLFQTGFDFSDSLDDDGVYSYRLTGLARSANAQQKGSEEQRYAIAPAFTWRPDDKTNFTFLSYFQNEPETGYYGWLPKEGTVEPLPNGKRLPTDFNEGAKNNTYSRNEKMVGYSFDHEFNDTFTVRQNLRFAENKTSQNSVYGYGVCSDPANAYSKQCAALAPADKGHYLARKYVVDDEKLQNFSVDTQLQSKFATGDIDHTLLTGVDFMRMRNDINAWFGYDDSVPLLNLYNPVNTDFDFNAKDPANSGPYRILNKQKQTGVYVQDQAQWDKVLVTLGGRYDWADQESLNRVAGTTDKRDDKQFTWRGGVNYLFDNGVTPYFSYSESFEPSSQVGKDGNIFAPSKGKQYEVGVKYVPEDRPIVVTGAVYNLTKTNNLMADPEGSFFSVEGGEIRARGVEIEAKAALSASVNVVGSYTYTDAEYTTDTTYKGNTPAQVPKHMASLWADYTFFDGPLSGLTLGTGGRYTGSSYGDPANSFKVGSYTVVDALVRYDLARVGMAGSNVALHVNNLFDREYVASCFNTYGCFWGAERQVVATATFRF
Briefly: SEC; complex assembled in vivo by co-overexpression in E. coli, purified by IMAC and then gel filtration (Superdex-200, 10 mM Hepes, 100 mM NaCl, 0.05% LDAO, pH 7.5); fractions on SDS-PAGE. As to conditions: partners not purified. Background: In gel filtration, larger molecules generally elute earlier.

B1: Llp, superinfection exclusion lipoprotein of bacteriophage T5 (natural protein, UniProt Q38162 16-77, looked up)
chain: C(lipid anchor)STFGPKDIKCEAYYMQDHVKYKANVFDRKGDMFLVSPIMAYGSFWAPVSYFTEGNTCEGVF
modifications: disulfide 11-58; reading uncertain
notes: Llp of bacteriophage T5, codon-optimized synthetic gene in the arabinose-inducible vector pB22; Lipoprotein; also called lytic conversion protein; SE lipoprotein; source: E. coli Bl21 (DE3) Δcyo, alone or co-overexpressed with FhuA, purified from membranes (IMAC, SEC, in detergent)
On to B1, for which the binding result is reported as “binds”.
